Blank lines part the entries; values can stand above or below the molecule they belong to. Positions of bridges follow the written chain, without caps; N, C: chain ends. Residues, ends and D or L forms follow the SMILES beside them. No end group written: not given here.
Experiments:
[1] = molecular target: T1, cell surface-associated uPAR (Homo sapiens, UniProt Q03405); assay: Flow cytometry: inhibition of binding of FITC-conjugated pro-uPA to cell surface-associated uPAR on PMA-stimulated U937 cells
T1 construct: After stimulation with PMA the U937 cells expressed considerable amounts of cell surface-associated uPAR; endogenous in cells; host or cells: U937 cells stimulated with PMA
Procedure: The ability of the synthetic peptides to inhibit the uPA/-uPAR interaction was determined by means of flow cytometry on a FACScan flow cytometer (Becton-Dickinson, Heidelberg, Germany) using the human promyeloid cell line U937 as a source of cellular native uPAR (Chuchulowski et al., Fibrinolysis 6, Suppl. 4 (1992), 95-102; Magdolen et al., (1996), supra). The U937 cells were stimulated with […] phorbol-12-myristate-13-acetate (PMA) for 48 h. After stimulation with PMA the U937 cells expressed considerable amounts of cell surface-associated uPAR.
The stimulated cells were treated for 1 min at room temperature with 50 mM glycine HCl, 0.1 NaCl, pH 3.6 in order to dissociate endogenous receptor-bound uPA. Subsequently the acidic buffer was neutralized with 0.5 M HEPES-100 mM NaCl, pH 7.5. The cells were then immediately washed twice with PBS/0.1% bovine serum albumin (BSA) and centrifuged for 10 min at room temperature and 300×g. The cells were resuspended in PBS/0.1% BSA, adjusted to a concentration of 10^6 cells per ml and simultaneously incubated for 45 minutes at room temperature with 16 ng FITC-conjugated pro-uPA and various amounts of the synthetic peptides. Before the analysis, propidium iodide, a fluorescent dye which specifically binds double-stranded DNA, was added to each sample in order to determine the viability of the analysed U937 cells. Damaged, propidium iodide-labelled cells were excluded from the analysis.
For this the purified peptides were analysed by mass spectroscopy, quantified by amino acid analysis and then tested by flow cytometry according to the method described in 1.3 for their ability to inhibit the binding of fluorescent-labelled pro-uPA to the uPA receptor on U937 cells.

recombinant human uPAR = molecular target: T2, recombinant human uPAR (Homo sapiens, UniProt Q03405); assay: Microtitre plate solid phase ATF-ligand binding test (competition with ATF for uPAR); settings: for inhibition of the binding of ATF to uPAR / uPAR binding capacity: 0.6 ng ATF together with 15 μg synthetic peptide per ml, FIG. 2
T2 construct: made in house; host or cells: CHO cells
Procedure: In addition to the flow cytometric analyses, a solid phase ATF-ligand binding test was carried out in order to examine the interactions of synthetic peptides with the uPAR. For this microtitre plates were coated with recombinant human uPAR from CHO cells (Wilhelm et al., FEBS Lett. 337 (1994), 131-134; Magdolen et al., Electrophoresis 16 (1995), 813-816) and the remaining protein-binding sites were saturated with 2% BSA (weight/vol.). After incubation with the samples (0.6 ng ATF together with 15 μg synthetic peptide per ml) and several wash steps, the amount of ATF which had bound to the immobilized uPAR on the microtitre plate was determined using a biotinylated monoclonal mouse antibody against the kringle domain of ATF (No. 377, American Diagnostics, Greenwich, Conn., USA) and subsequent addition of avidin-peroxidase conjugate and 3,3′,5,5′-tetramethylbenzidine/[…] as a substrate for the peroxidase. The presence of synthetic peptides which compete with the ATF binding to uPAR reduces the conversion of the chromogenis substrate.
A series of peptides with variable sequence regions from the receptor binding region of uPA were synthesized and were increasingly shortened at the amino terminus starting with uPA10-32. The microtitre plate solid phase binding test described in 1.4 was used to determine the inhibitory capacity of these peptides.

[2] = Stability of binding activity after long storage in aqueous solution or repeated freeze/thaw cycles; assay type: physicochemical; settings: compared with linear uPA19-31
[3] = molecular target: T3, cell surface-associated uPA receptor (uPAR) on PMA-stimulated human U937 cells (human, UniProt Q03405 23-305); assay: flow cytometry, competition with FITC-pro-uPA on U937 cells
T3 construct: whole, on cells; also called urokinase receptor; cellular native uPAR
Procedure: (§1) The U937 cells were stimulated with […] phorbol-12-myristate-13-acetate (PMA) for 48 h.
(§2) Subsequently the acidic buffer was neutralized with 0.5 M HEPES-100 mM NaCl, pH 7.5. The cells were then immediately washed twice with PBS/0.1% bovine serum albumin (BSA) and centrifuged for 10 min at room temperature and 300×g. […] Before the analysis, propidium iodide, a fluorescent dye which specifically binds double-stranded DNA, was added to each sample in order to determine the viability of the analysed U937 cells. Damaged, propidium iodide-labelled cells were excluded from the analysis.

[4] = molecular target: T3, cell surface-associated uPA receptor …; assay: flow cytometry, competition with FITC-pro-uPA on U937 cells (section 2.1)
Procedure: as §1, §2

[5] = molecular target: T4, recombinant human uPAR from CHO cells (human, UniProt Q03405 23-299, limits assumed); assay: solid phase ATF-ligand binding test, competition with ATF on immobilized recombinant uPAR
T4 construct: Magdolen et al. 1995; also called immobilized uPAR
T4 sequence (Q03405 23-299 limits assumed): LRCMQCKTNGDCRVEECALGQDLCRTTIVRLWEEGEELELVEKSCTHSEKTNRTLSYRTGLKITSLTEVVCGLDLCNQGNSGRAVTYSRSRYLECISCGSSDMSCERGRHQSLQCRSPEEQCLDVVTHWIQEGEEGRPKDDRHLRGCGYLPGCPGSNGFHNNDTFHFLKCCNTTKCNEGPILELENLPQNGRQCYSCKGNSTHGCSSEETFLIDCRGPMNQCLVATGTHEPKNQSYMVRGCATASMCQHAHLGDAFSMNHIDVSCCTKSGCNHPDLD

T2 sequence (Q03405 23-299 limits assumed): as above
T1 sequence (Q03405 23-305): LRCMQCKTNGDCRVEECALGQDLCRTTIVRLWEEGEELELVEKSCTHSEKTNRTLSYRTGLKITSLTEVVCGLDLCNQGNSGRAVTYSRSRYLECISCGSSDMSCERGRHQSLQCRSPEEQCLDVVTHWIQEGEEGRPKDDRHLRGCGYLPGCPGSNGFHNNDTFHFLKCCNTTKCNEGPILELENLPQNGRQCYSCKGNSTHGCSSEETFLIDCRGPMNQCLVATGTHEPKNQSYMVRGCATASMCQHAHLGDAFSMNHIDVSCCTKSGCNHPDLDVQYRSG
T3 sequence (Q03405 23-305): as above

IC50 [1]: ~3200 nM
molar excess resulting in a 50% inhibition of the binding of uPA ([1]; U937 cells, 16 ng FITC-conjugated pro-uPA, 45 min, room temperature): approximately 3,000 molar excess
higher affinity to uPAR compared to the two other peptides ([1]; versus uPA12-32 [C19A] and clone 20 peptide): 4- to 5 fold
Molecule: CC[C@H](C)[C@H](NC(=O)[C@H](CC(N)=O)NC(=O)[C@H](CO)NC(=O)[C@H](Cc1ccccc1)NC(=O)[C@H](Cc1ccc(O)cc1)NC(=O)[C@H](CCCCN)NC(=O)[C@H](CC(N)=O)NC(=O)[C@H](CO)NC(=O)[C@@H](NC(=O)[C@H](CS)NC(=O)[C@@H](NC(=O)CNC(=O)CN)[C@@H](C)O)C(C)C)C(=O)N[C@@H](Cc1c[nH]cn1)C(=O)N[C@@H](Cc1c[nH]c2ccccc12)C(=O)N[C@@H](CS)C(=O)N[C@@H](CC(N)=O)C(=O)O [uPA16-32] (H-GGTCVSNKYFSNIHWCN-OH; N-terminus and C-terminus assumed)
inhibition of the binding of ATF to uPAR / uPAR binding capacity (recombinant human uPAR): effectively inhibit the binding of ATF to uPAR

Molecule: cyclo^19,31uPA19-31: cyclic peptide which contains an intramolecular disulfide bond between the cysteine residues at positions 19 and 31 (CVSNKYFSNIHWC; disulfide 1-13)
inhibition of the binding of uPA to the uPA receptor (recombinant human uPAR; cyclic peptide with disulfide bond between Cys 19 and 31): still able to inhibit the binding of uPA to the uPA receptor
stability of binding activity [2]: significantly more stable

Molecule: uPA10-32: peptide from the receptor binding region of uPA, amino acids 10-32 (NCDCLNGGTCVSNKYFSNIHWCN)
inhibition of the binding of ATF to uPAR / uPAR binding capacity (recombinant human uPAR): effectively inhibit the binding of ATF to uPAR

Molecule: uPA12-31: peptide from the receptor binding region of uPA (DCLNGGTCVSNKYFSNIHWC)
inhibition of the binding of ATF to uPAR / uPAR binding capacity (recombinant human uPAR): effectively inhibit the binding of ATF to uPAR

Molecule: uPA14-32: peptide having the amino acids 14 to 32 of uPA (LNGGTCVSNKYFSNIHWCN) [reference compound]
inhibition of the binding of ATF to uPAR / uPAR binding capacity (recombinant human uPAR): effectively inhibit the binding of ATF to uPAR

Molecule: uPA17-32: peptide from the receptor binding region of uPA (GTCVSNKYFSNIHWCN)
inhibition of the binding of ATF to uPAR / uPAR binding capacity (recombinant human uPAR): considerably reduced uPAR binding capacities

inhibition of the binding of ATF to uPAR / uPAR binding capacity (recombinant human uPAR): no significant binding capacity
Molecule: uPA18-30: linear peptide from the receptor binding region of uPA (TCVSNKYFSNIHW)

Molecule: uPA18-34: peptide from the receptor binding region of uPA (TCVSNKYFSNIHWCNCP)
inhibition of the binding of ATF to uPAR / uPAR binding capacity (recombinant human uPAR): considerably reduced uPAR binding capacities

inhibition of the binding of ATF to uPAR / uPAR binding capacity (recombinant human uPAR): no significant binding capacity
Molecule: uPA20-30: linear peptide from the receptor binding region of uPA (VSNKYFSNIHW)

inhibition of the binding of ATF to uPAR / uPAR binding capacity (recombinant human uPAR): no significant binding capacity
Molecule: uPA20-32: linear peptide from the receptor binding region of uPA (VSNKYFSNIHWCN)

inhibition of the binding of ATF to uPAR / uPAR binding capacity (recombinant human uPAR): does not bind at all to the uPAR
Molecule: uPA20-34: peptide from the receptor binding region of uPA (VSNKYFSNIHWCNCP)

molar excess for 50% inhibition of the binding of uPA [3]: ~12000 fold molar excess
B1: clone 20-peptide AEPMPHSLNFSQYLWYT (peptide)
peptide: AEPMPHSLNFSQYLWYT

IC50 [4]: ~800 nM
B2: linear peptide uPA19-31 (peptide)
peptide: CVSNKYFSNIHWC
notes: Linear form

B3: uPA20-32 (peptide, UniProt P00749 40-52, looked up)
peptide: VSNKYFSNIHWCN
notes: range 40-52
binding result [5]: no binding (tested: 15 µg synthetic peptide per ml)

molar excess for 50% inhibition of the binding of uPA [3]: ~3000 fold molar excess
B4: uPA16-32 (peptide, UniProt P00749 36-52, looked up)
peptide: GGTCVSNKYFSNIHWCN
notes: range 16-32

B5: uPA18-30 (peptide, UniProt P00749 38-50, looked up)
peptide: TCVSNKYFSNIHW
notes: range 18-30
binding result [5]: no binding (tested: 15 µg synthetic peptide per ml)

B6: uPA20-34 (peptide, UniProt P00749 40-54, looked up)
peptide: VSNKYFSNIHWCNCP
notes: range 40-54
binding result [5]: no binding (tested: 15 µg synthetic peptide per ml)

— patent US6528619B1, “Inhibitors for urokinase receptor” (Roche Diagnostics GmbH, priority 1997, dated 2003)
